# According to US20110065649A1 (CENTRE NATIONAL DE LA RECHERCHE SCIENTIFIQUE CNRS, published 2011):
# Square brackets hold non-standard residues; d marks the D form. Ends that are not written are not given here. KΨPR = pseudopeptide unit Lys-Ψ(CH2-N)-Pro-Arg; Aib = CC(C)(N)C(=O)O
# B1: hexavalent compound Nucant 6 (peptide)
# chain: Ac-K(KΨPR)[Aib]GK(KΨPR)[Aib]GK(KΨPR)[Aib]GK(KΨPR)[Aib]GK(KΨPR)[Aib]GK(KΨPR)[Aib]G-NH2
# peptide: Lys-Pro-Arg
# modifications: also: chain 2 is the KΨPR unit, one copy bound via its C-terminus as amide on the ε-amine of each of the 6 Lys of chain 1, reduced bond Ψ(CH2-N) between K and P of chain 2
# Molecular target: surface nucleolin on human cells (human, UniProt P19338 2-710)
# Sequence (P19338 2-710): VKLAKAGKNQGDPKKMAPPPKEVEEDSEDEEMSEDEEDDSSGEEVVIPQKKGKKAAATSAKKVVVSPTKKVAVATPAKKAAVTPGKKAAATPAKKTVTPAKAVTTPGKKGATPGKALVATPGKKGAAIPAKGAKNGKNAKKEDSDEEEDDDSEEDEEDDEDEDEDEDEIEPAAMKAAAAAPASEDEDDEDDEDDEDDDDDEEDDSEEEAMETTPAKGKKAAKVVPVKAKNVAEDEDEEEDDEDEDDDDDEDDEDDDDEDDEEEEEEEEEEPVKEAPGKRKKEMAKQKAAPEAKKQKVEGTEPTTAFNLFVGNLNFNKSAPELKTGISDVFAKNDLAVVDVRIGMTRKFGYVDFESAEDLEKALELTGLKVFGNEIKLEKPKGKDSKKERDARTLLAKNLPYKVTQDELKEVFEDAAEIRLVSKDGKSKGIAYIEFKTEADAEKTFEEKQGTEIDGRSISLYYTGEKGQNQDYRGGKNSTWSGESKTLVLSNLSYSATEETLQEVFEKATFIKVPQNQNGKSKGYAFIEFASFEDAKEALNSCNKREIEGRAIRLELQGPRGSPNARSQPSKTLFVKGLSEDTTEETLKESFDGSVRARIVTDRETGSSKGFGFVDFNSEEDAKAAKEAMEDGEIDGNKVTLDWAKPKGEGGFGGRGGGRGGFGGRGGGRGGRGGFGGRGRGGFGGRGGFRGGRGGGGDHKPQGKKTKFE
# Test: cell-based or functional assay
binder,measurement,value
B1,ID50 (Inhibitory Dose at 50%) of surface nucleolin activity in HeLa P4 cells,< 100 nM
